The text below walks through data of US20260242478A1 (published 2026).

Where no end group is shown, it is not given here.

In the first assay the target is T1, Anti-CD28 Fab (SEQ ID NOs: 696, 697).
T1 construct: In the phage ELISA the Fab was biotinylated and captured on neutravidin coated plates
In words: phage binding ELISA; clonal phage on plate-captured anti-CD28 Fab pre-incubated with CD28 antigen (competitor). On the technique in general: In an ELISA, binding on a coated surface is turned into a signal by an enzyme label.
T1 sequence (VH, as listed by the source, chain 1 of 2): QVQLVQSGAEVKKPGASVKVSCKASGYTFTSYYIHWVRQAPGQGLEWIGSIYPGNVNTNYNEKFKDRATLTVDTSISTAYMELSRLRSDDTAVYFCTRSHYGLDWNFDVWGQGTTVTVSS
T1 sequence (VL, as listed by the source, chain 2 of 2): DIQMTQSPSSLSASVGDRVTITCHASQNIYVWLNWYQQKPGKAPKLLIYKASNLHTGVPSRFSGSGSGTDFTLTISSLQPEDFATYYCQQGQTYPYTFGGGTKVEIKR
Procedure: Clonal phage were harvested as crude supematants and screened via standard ELISAs. […] Prior to the addition of clonal phage, wells were incubated with blocking buffer and CD28 antigen or blocking buffer alone. Without washing or aspirating, clonal phage supematants were then added to the wells and incubated for a short time. Wells were then washed followed by detection of bound phage using a horse radish conjugated anti-M13 antibody. Clonal phage of interest were then sent for sequence analysis.
Regarding MCSAGAMYPWPTCL [Phage-1406 (Peptide-92 library clone)], the “Anti-CD28 Fab signal in the presence of CD28” value (from here on “Anti-CD28 Fab signal”) worked out at 0.08.
Turning to GCAAGATYPWPSCL [Phage-1404 (Peptide-92 library clone)], the “Anti-CD28 Fab signal” value turned out to be 0.06.
On the same count and under the same terms, the result for TCSAGASWAWPWCF [Phage-1408 (Peptide-92 library clone)] reads 0.08.
In the case of TCAAGASYAWPWCL [Phage-1407 (Peptide-92 library clone)], the “Anti-CD28 Fab signal” value came to 0.08.
On the same count and under the same terms, the result for TCSAGATYVWPQCF [Phage-1403 (Peptide-92 library clone)] reads 0.07.
As for TCAAGATYKWPACL [Phage-1405 (Peptide-92 library clone)], the “Anti-CD28 Fab signal” value turned out to be 0.09.

The next assay deals with T2, Anti-CD28 Fab (SEQ ID NOs: 696, 697) (biotinylated (site not given)). The experiment in a line: phage binding ELISA; biotinylated anti-CD28 Fab on neutravidin plate, clonal phage detected with anti-M13-HRP.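 Further: crude clonal phage supernatants added briefly to wells preincubated in blocking buffer with or without CD28 antigen, then washed before detection.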
T2 sequence (VH, as listed by the source, chain 1 of 2): as the sequence (VH, as listed by the source, chain 1 of 2) above
T2 sequence (VL, as listed by the source, chain 2 of 2): as the sequence (VL, as listed by the source, chain 2 of 2) above
For QCAAGASYPWPMCL [Phage-1398], the “Anti-CD28 Fab (SEQ ID NOs: 696, 697) signal” value stood at 2.08.
Turning to MCAEFFNYPWPLCL (cysteine pairing not given here; also: fused to phage pIII protein) [Phage-1393], the “Anti-CD28 Fab (SEQ ID NOs: 696, 697) signal” value was found to be 2.11.
For TCAAGATYEWPACL [Phage-1394], the “Anti-CD28 Fab (SEQ ID NOs: 696, 697) signal” value came out at 2.09.
Consider TCAAGATYAWPECL [Phage-1400], for which the “Anti-CD28 Fab (SEQ ID NOs: 696, 697) signal” value is 2.08.
Take TCAAGAHYLWPWCM [Phage-1402]: the “Anti-CD28 Fab (SEQ ID NOs: 696, 697) signal” value was found to be 2.05.
Consider TCSAGATWTWPQCL [Phage-1391], for which the “Anti-CD28 Fab (SEQ ID NOs: 696, 697) signal” value was 2.14.
As for TCAAVFSYGWPECF [Phage-1396], the “Anti-CD28 Fab (SEQ ID NOs: 696, 697) signal” value came to 2.09.
Same read-out and setting: the result for SCSAGAMYTWPTCL [Phage-1397] reads 2.09; that for TCSAGAYYTWPYCF [Phage-1395], 2.09.
Same read-out and setting: the result for YCAAGATYPWPLCL [Phage-1399] reads 2.08; that for TCSEGATYTWPWCF [Phage-1401], 2.05; that for LCAAGATYAWPLCL [Phage-1392], 2.13.

In another assay the target is T2, Anti-CD28 Fab (SEQ ID NOs: 696, 697). In words: phage binding ELISA on captured anti-CD28 Fab; competitor: CD28 antigen added to the wells before the phage.
Procedure: (§1) Clonal phage were harvested as crude supematants and screened via standard ELISAs. […] Prior to the addition of clonal phage, wells were incubated with blocking buffer and CD28 antigen or blocking buffer alone. Without washing or aspirating, clonal phage supematants were then added to the wells and incubated for a short time. Wells were then washed followed by detection of bound phage using a horse radish conjugated anti-M13 antibody.
For the molecule QCAAGASYPWPMCL [Phage-1398], the “Anti-CD28 Fab signal” value is 0.08.
MCAEFFNYPWPLCL (cysteine pairing not given here; also: fused to phage pIII protein) [Phage-1393]: the “Anti-CD28 Fab signal” value amounted to 0.07.
On to TCAAGATYEWPACL [Phage-1394], for which the “Anti-CD28 Fab signal” value is 0.07.
Turning to TCAAGATYAWPECL [Phage-1400], the “Anti-CD28 Fab signal” value was determined as 0.11.
On the same count and under the same terms, the result for TCAAGAHYLWPWCM [Phage-1402] reads 0.08; that for TCSAGATWTWPQCL [Phage-1391], 0.08.
For the molecule TCAAVFSYGWPECF [Phage-1396], the “Anti-CD28 Fab signal” value stood at 0.07.
On the same count and under the same terms, the result for SCSAGAMYTWPTCL [Phage-1397] reads 0.06; that for TCSAGAYYTWPYCF [Phage-1395], 0.08.
Take YCAAGATYPWPLCL [Phage-1399]: the “Anti-CD28 Fab signal” value stood at 0.08.
As for TCSEGATYTWPWCF [Phage-1401], the “Anti-CD28 Fab signal” value came to 0.06.
Same read-out and setting: in the case of LCAAGATYAWPLCL [Phage-1392] it was 0.07.

A further assay has as its target T1, Anti-CD28 Fab (SEQ ID NOs: 696, 697). The experiment in a line: phage binding ELISA; clonal phage on plate-captured biotinylated anti-CD28 Fab.
Procedure: as §1
As to MCSAGAMYPWPTCL [Phage-1406 (Peptide-92 library clone)], the “Anti-CD28 Fab (SEQ ID NOs: 696, 697) signal” value was determined as 2.04.
With GCAAGATYPWPSCL [Phage-1404 (Peptide-92 library clone)], the “Anti-CD28 Fab (SEQ ID NOs: 696, 697) signal” value came out at 2.05.
With TCSAGASWAWPWCF [Phage-1408 (Peptide-92 library clone)], the “Anti-CD28 Fab (SEQ ID NOs: 696, 697) signal” value came to 2.03.
Regarding TCAAGASYAWPWCL [Phage-1407 (Peptide-92 library clone)], the “Anti-CD28 Fab (SEQ ID NOs: 696, 697) signal” value is 2.03.
Consider TCSAGATYVWPQCF [Phage-1403 (Peptide-92 library clone)], for which the “Anti-CD28 Fab (SEQ ID NOs: 696, 697) signal” value stood at 2.05.
Consider TCAAGATYKWPACL [Phage-1405 (Peptide-92 library clone)], for which the “Anti-CD28 Fab (SEQ ID NOs: 696, 697) signal” value came to 2.05.
